What was measured:
p-ERK = assay: Immunoblotting of phosphorylated ERK; assay type: cell-based; details: PKG inhibition
Procedure: Immunoblotting. […] Samples were kept on ice during sonication to prevent overheating. Samples were then centrifuged at 15,000 rpm for 20 min, and the supernatants were collected and subjected to protein quantification. The PAGE (polyacrylamide gel electrophoresis) on 6-10% SDS gels was performed followed by semi-dry transfer to PVDF membranes using a Bio-Rad Trans-Blot Turbo Transfer System and detection using antibodies against t-ERK (1:1,000), p-ERK (1:1,000), NOS (1:200), and GAPDH (1:2,000) (Cell Signaling Technology). Blots were scanned with both calorimetry to image molecular markers and chemiluminescence to capture the protein signal intensity using a Bio-Rad imager.

[1] = target: Dopamine-receptor type-5 (DR-5) on primary cilia of cultured cells; assay: live single-cell fluorescence imaging of perfused fluorescent nanoparticles on the cilium
[2] = target: Dopamine-receptor type-5 (DR-5) on primary cilia of cultured cells; assay: fluorescence intensity in non-permeabilized live cells
[3] = target: Dopamine-receptor type-5 (DR-5) on primary cilia of cultured cells; assay: live single-cell-single-cilium fluorescence intensity per area

## Nc1nc2c(nc(Sc3ccc(Cl)cc3)n2C2OC3COP(O)(=S)OC3C2O)c(=O)[nH]1 (centres unmarked) [Rp-8pCPT-cGMP]
p-ERK
  flow-induced effect of NPs on ERK phosphorylation: reduced the flow-induced effect of NPs on ERK phosphorylation

## CT-DAu-NPs (cilia-targeted dopaminergized gold nanoparticles carrying DR-5-AF594 antibody and fenoldopam)
[1]
  binding kinetics to cilia: 0.21 min⁻¹

## CT-Fe2O3-NPs (antibody- and fenoldopam-loaded Sunbright-40-OA-Fe2O3-NPs)
[2]
  ratio of cilia-to-cell body specificity: 158
[3]
  proportion of specific binding cilium:cell:background (relative to background = 1): 17000

## CT-PLGA-NPs (cilia-targeted PLGA nanoparticles carrying DR-5-AF594 antibody and fenoldopam)
[1]
  binding kinetics to cilia: 0.26 min⁻¹
